Measurements reported in the RNAGym collection of RNA variant scans (doi:10.1073/pnas.2313332121).
This sample holds only a part of the variants without activity.

B1: TPR 5TU (parent)
chain: GGAUCUUCUCGAUCUAACAAAAAAGACAAAUCUGCCACAAAGCUUGAGAGCAUCUUCGGAUGCAGAGGCGGCAGCCUUCGGUGGCGCGAUAGCGCCAACGUUCUCAACUAUGACACGCAAAACGCGUGCUCCGUUGAAUGGAGUUUAUCAUG

Variants of: B1
Experiment: polymerase ribozyme fitness, log enrichment relative to wild type (log ratio); higher = more active; in vitro selection for triplet polymerase activity
Procedure, shortened: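 After PCR construction and transcription, each subunit's mutant library from a heterodimeric triplet polymerase ribozyme was annealed with a biotinylated primer, the partner subunit and triplets. Incubation was frozen, at −7 °C, and extended constructs were gel-excised, bound to streptavidin beads and amplified by RT-PCR, in one selection round done in triplicate. Fitness is the logarithm of a genotype's enrichment divided by that of the wild type, from inverse-variance-weighted replicate averages of Illumina-sequenced inputs and outputs. The base of the logarithm is 2, and genotypes needed ≥10 input reads and ≥1 read per output.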

First: A19C G59A U144C
Second: G80A A98C
The “polymerase ribozyme fitness (log ratio)” value of the first is higher: 1.14 for the first, -2.19 for the second.

C35U A47U U148A A150U and C35U A40C U45G G50A G88U A91G G140C cannot be ordered by “polymerase ribozyme fitness (log ratio)” value: ≤ -4.2 for the first, ≤ -4.2 for the second.

A40C C75A C114G and C75G U77G G80C A97U G124A cannot be ordered by “polymerase ribozyme fitness (log ratio)” value: ≤ -4.2 for the first, ≤ -4.2 for the second.

C57G G71U C72G G84U G133U A137U and U55A C87G U101G G143A cannot be ordered by “polymerase ribozyme fitness (log ratio)” value: ≤ -4.2 for the first, ≤ -4.2 for the second.

Going from G59U C85G A119U G128A to C69A G92U, the “polymerase ribozyme fitness (log ratio)” value rises from -4.19 to -1.15.

Compared with G71A, A12G C85U C129A U151C is lower in “polymerase ribozyme fitness (log ratio)” value: -2.47 for the first, ≤ -4.2 for the second.

A49G G50U C87G U144G and U61A A98U U134G G140U U145A cannot be ordered by “polymerase ribozyme fitness (log ratio)” value: ≤ -4.2 for the first, ≤ -4.2 for the second.

First: C85A U130A
Second: C14A A39G G42A U82C G88C
The “polymerase ribozyme fitness (log ratio)” value of the first is higher: -2.45 for the first, ≤ -4.2 for the second.

Going from A22G A28U A29G A37C G48A A64C C85G C99U C125A A137G to C18G G80U C116U, the “polymerase ribozyme fitness (log ratio)” value rises from ≤ -4.2 to -1.62.

U7C G50A A66G and A20C U55A C132A A137G G143A U146G cannot be ordered by “polymerase ribozyme fitness (log ratio)” value: ≤ -4.2 for the first, ≤ -4.2 for the second.

G70A U78C G88U U104G A113G G128U U135A and C10U G25U C32A C76A G83U G88C C93G cannot be ordered by “polymerase ribozyme fitness (log ratio)” value: ≤ -4.2 for the first, ≤ -4.2 for the second.

Going from C57G C87U A89C C116A C132A to U6C C10A U13A C35G C36G A37G G81U G83C, the “polymerase ribozyme fitness (log ratio)” value falls from -4.13 to ≤ -4.2.

Going from G46C U77G A142C to G84C, the “polymerase ribozyme fitness (log ratio)” value rises from ≤ -4.2 to -1.76.

A12C C14A A30U A39C G58C G83C G124U and A49C G71A cannot be ordered by “polymerase ribozyme fitness (log ratio)” value: ≤ -4.2 for the first, ≤ -4.2 for the second.

Compared with A21U C96A G136A, U13G U78G G86U G140A G141A is lower in “polymerase ribozyme fitness (log ratio)” value: 0.203 for the first, ≤ -4.2 for the second.

First: G59A C75G A122U C129A G143U
Second: C36A G70U G80U C105U
The “polymerase ribozyme fitness (log ratio)” value of the first is lower: -3.5 for the first, -0.569 for the second.

A3G C18U A49C C57U C85G G143U and C10A C32A C54U C116A G143A cannot be ordered by “polymerase ribozyme fitness (log ratio)” value: ≤ -4.2 for the first, ≤ -4.2 for the second.

A29C U33A A41U G42A G83C C96U C108G and A29U G46U G70U U90G C95U A115G G117U A120U cannot be ordered by “polymerase ribozyme fitness (log ratio)” value: ≤ -4.2 for the first, ≤ -4.2 for the second.

U13G A30C G50C U82A A110C G136U and U56A G74A A138G cannot be ordered by “polymerase ribozyme fitness (log ratio)” value: ≤ -4.2 for the first, ≤ -4.2 for the second.

First: A22U A41C A52U G124U
Second: U13G G59U C96U
The “polymerase ribozyme fitness (log ratio)” value of the first is lower: -2.3 for the first, -0.998 for the second.

First: C43A C87U G136C
Second: A73U G84C C116A
The “polymerase ribozyme fitness (log ratio)” value of the first is lower: ≤ -4.2 for the first, -2.63 for the second.

First: A22U C32U U55G U56C C75A G88U C105U A142U
Second: A21C C96U A122C
The “polymerase ribozyme fitness (log ratio)” value of the first is lower: ≤ -4.2 for the first, -0.0635 for the second.

U53A U55A and G58C G83A C93U are within 0.2 log units of each other in “polymerase ribozyme fitness (log ratio)” value: -2.2 for the first, -2.03 for the second.

A30G A138G and A12U G58U A60U G86C A107U G133U C149G cannot be ordered by “polymerase ribozyme fitness (log ratio)” value: ≤ -4.2 for the first, ≤ -4.2 for the second.

First: G48A A150U
Second: A39G G50C G65C A110G A120G
The “polymerase ribozyme fitness (log ratio)” value of the first is higher: -0.592 for the first, ≤ -4.2 for the second.

Going from U6C A26C A28G to G59U G81A C85G A106C, the “polymerase ribozyme fitness (log ratio)” value rises from -3.84 to -3.51.

Compared with G83U C96U, A49C A64U C87A U104G G143A is lower in “polymerase ribozyme fitness (log ratio)” value: -0.875 for the first, ≤ -4.2 for the second.

A17G A29U G42A C87U G100U A110C A115C A120G U134A and C43G G80U G84A C93A U134C cannot be ordered by “polymerase ribozyme fitness (log ratio)” value: ≤ -4.2 for the first, ≤ -4.2 for the second.

C54A G92A and C51G C85G C125U A137C cannot be ordered by “polymerase ribozyme fitness (log ratio)” value: ≤ -4.2 for the first, ≤ -4.2 for the second.

First: C76G A106G G133A
Second: G81A G92A U101A
The “polymerase ribozyme fitness (log ratio)” value of the first is lower: ≤ -4.2 for the first, -3.21 for the second.

Going from A47C C51U U53A C54A G141U to C85G G133C U135C, the “polymerase ribozyme fitness (log ratio)” value falls from -4.13 to ≤ -4.2.

Compared with U56G G59A G81U A89C G92U U139A, C116U G141U is higher in “polymerase ribozyme fitness (log ratio)” value: ≤ -4.2 for the first, 1.29 for the second.

C8U C93A and A24G C32A C38A U45A C57U A106U C118U cannot be ordered by “polymerase ribozyme fitness (log ratio)” value: ≤ -4.2 for the first, ≤ -4.2 for the second.

First: A37U A89U U146A
Second: U13A A22U A41C U53G
The “polymerase ribozyme fitness (log ratio)” value of the first is higher: -1.62 for the first, -2.31 for the second.

Going from C35U C72U U82G C96U A106G G112A to A17C A30G C95G, the “polymerase ribozyme fitness (log ratio)” value rises from ≤ -4.2 to -3.8.

Going from A47C U61C C96U to C5U G46A U61G, the “polymerase ribozyme fitness (log ratio)” value falls from -3.35 to -4.13.

A3U C8A A39U A91G U111A A115U G117U and A16C A89U A91U U127C cannot be ordered by “polymerase ribozyme fitness (log ratio)” value: ≤ -4.2 for the first, ≤ -4.2 for the second.

Going from A20U A41C G50A G141A to C96A A115U, the “polymerase ribozyme fitness (log ratio)” value rises from -4.03 to -2.29.

C54U A60C C75A A91U C96U A97G A107C G136A A137U and G67U G117A U151A cannot be ordered by “polymerase ribozyme fitness (log ratio)” value: ≤ -4.2 for the first, ≤ -4.2 for the second.

First: A21U C75G
Second: G67A A73C C87G
The “polymerase ribozyme fitness (log ratio)” value of the first is higher: -4.03 for the first, ≤ -4.2 for the second.

Going from U4G U15G A30G A41U G46U C69G C76U C93G G143C to G58A U104A, the “polymerase ribozyme fitness (log ratio)” value rises from ≤ -4.2 to 0.105.

With C5U A66G C87U the “polymerase ribozyme fitness (log ratio)” value was ≤ -4.2.
